Results as given in patent US20160251435A1 (INHIBRX, published 2016).
Where a chain is given by its changes, count along the chain named. Like-named read-outs stand apart in the source and are kept apart here.

Key:
[1] = molecular target: T1, human CD47, endogenous cell surface form (Raji, CCRF-CEM cells) (human, UniProt Q08722 19-323); test: flow cytometry on Raji cells, MFI (FL4)
T1 construct: the cells carry endogenous CD47; also called cell surface CD47
Protocol: (§1) Humanized antibodies were tested for their ability to bind Raji cells by flow cytometry (FIG. 7). […] Apparent affinities were determined by non-linear fits (Prism Graphpad Software) of the median fluorescence intensities at various antibody concentrations.

[2] = molecular target: T1, human CD47, endogenous cell surface …; test: apparent KD, flow cytometry on Raji cells, non-linear fit of median fluorescence
[3] = molecular target: T1, human CD47, endogenous cell surface …; test: flow cytometry on Raji cells, MFI (FL4); remark: listed apart in the source
Protocol: as §1

[4] = molecular target: T1, human CD47, endogenous cell surface …; test: apparent KD, flow cytometry on Raji cells, non-linear fit of median fluorescence; remark: listed apart in the source
Protocol: as §1

[5] = molecular target: T1, human CD47, endogenous cell surface …; test: flow cytometry on Raji cells, MFI (FL4); remark: listed apart in the source
Protocol: as §1

[6] = molecular target: T1, human CD47, endogenous cell surface …; test: flow cytometry on Raji cells, MFI (FL4); remark: listed apart in the source
Protocol: as §1

[7] = molecular target: T1, human CD47, endogenous cell surface …; test: flow cytometry on Raji cells, MFI (FL4); remark: listed apart in the source
Protocol: as §1

[8] = molecular target: T1, human CD47, endogenous cell surface …; test: flow cytometry on Raji cells, MFI (FL4); remark: listed apart in the source
Protocol: as §1

[9] = molecular target: T1, human CD47, endogenous cell surface …; test: flow cytometry on Raji cells, MFI (FL4); remark: listed apart in the source
Protocol: as §1

[10] = molecular target: T1, human CD47, endogenous cell surface …; test: apparent KD, flow cytometry on cell surface CD47, non-linear fit of median fluorescence
Protocol: Apparent affinities were determined by non-linear fits (Prism Graphpad Software) of the median fluorescence intensities at various antibody concentrations.

[11] = molecular target: T1, human CD47, endogenous cell surface …; test: flow cytometry blocking: SIRPa-Fc binding to CCRF-CEM cells with rising antibody (method of Example 3)
[12] = molecular target: T1, human CD47, endogenous cell surface …; test: flow cytometry on CCRF-CEM cells, FITC anti-mouse IgG, MFI-FL1
Description: Bound CD47 antibodies were detected using a FITC conjugated anti-mouse IgG secondary antibody (Jackson ImmunoResearch).

B1: chimeric 2A1 antibody (2A1-xi) (antibody, V domains shown)
VH: EVQLQQSGAELVRSGASVKLSCTASGFNIKDYYLHWVKQRPEQGLEWIGWIDPDNGDTEFAPKFQGKATMTADTSSNTAYLQLSSLTSEDTAVYYCNAAYGSSSYPMDYWGQGTSVTV
VL: DIKMTQSPSSLYASLGERVTITCKASQDIHRYLSWFQQKPGKSPKILIYRANRLVDGVPSRFSGSGSGQDYSLTISSLEYEDMGIYYCLQYDEFPYTFGGGTKLEIK
EC50 (read off the curve) [1]: ~0.05 nM
Kd [2]: 0.078 nM
EC50 (read off the curve) [3]: ~0.1 nM
Kd [4]: 0.0364 nM
EC50 (read off the curve) [5]: ~0.2 nM
EC50 (read off the curve) [6]: ~0.05 nM
EC50 (read off the curve) [7]: ~0.1 nM

B2: humanized antibody AB2.05 (human IgG1) (antibody, V domains shown)
VH: QMQLVQSGAEVKKTGSSVKVSCKASGFNIKDYYLHWVRQAPGQALEWMGWIDPDNGDTEYAQKFQDRVTITRDRSMSTAYMELSSLRSEDTAMYYCNAAYGSSSYPMDYWGQGTTVTV
VL: NIQMTQSPSAMSASVGDRVTITCKASQDIHRYLSWFQQKPGKVPKHLIYRANRLVDGVPSRFSGSGSGTEFTLTISSLQPEDFATYYCLQYDEFPYTFGGGTKVEIK
EC50 (read off the curve) [1]: ~0.1 nM
EC50 (read off the curve) [3]: ~0.1 nM
EC50 (read off the curve) [8]: ~0.2 nM
EC50 (read off the curve) [9]: ~0.2 nM
EC50 (read off the curve) [5]: ~0.3 nM

B3: AB02.03 (antibody, V domains shown)
VH: B2 VH
VL: B2 VL with N1D, A10S, M11L, F36Y, V43A, H46L, E70D, L73F, F83I
notes: humanized variant of 2A1; also called AB2.03
EC50 (read off the curve) [9]: ~0.5 nM

B4: AB6.13 (antibody, V domains shown)
VH: B2 VH with N55Q
VL: B2 VL with K24R, S26R, D28G, H46I
EC50 (read off the curve) [1]: ~0.03 nM
EC50 (read off the curve) [7]: ~0.07 nM

B5: AB23.05 (antibody, V domains shown)
VH: B2 VH with R87T, M93V
VL: B2 VL
EC50 (read off the curve) [3]: ~0.1 nM

B6: AB2.09 (antibody, V domains shown)
VH: B2 VH
VL: B2 VL with N1D
EC50 (read off the curve) [8]: ~0.2 nM

B7: AB10.13 (antibody, V domains shown)
VH: B2 VH with G56T
VL: B2 VL with K24R, S26R, D28G, H46I
binding result [7]: binds

B8: AB11.05 (antibody, V domains shown)
VH: B2 VH with S104P
VL: B2 VL
EC50 (read off the curve) [8]: ~0.2 nM

B9: AB6.14 (antibody, V domains shown)
VH: B2 VH with N55Q
VL: B2 VL with K24R, S26R, D28G, D56S
binding result [7]: binds

B10: AB02.06 (antibody, V domains shown)
VH: B2 VH
VL: B2 VL with N1D, A10S, M11L, F36Y, V43A, H46R
notes: humanized variant of 2A1; also called AB2.06
binding result [9]: binds

B11: AB02.04 (antibody, V domains shown)
VH: B2 VH
VL: B2 VL with N1D, A10S, M11L, V43A, H46S, E70D
notes: humanized variant of 2A1; also called AB2.04
EC50 (read off the curve) [9]: ~0.2 nM

B12: humanized antibody AB6.12-IgG4P (antibody, V domains shown)
VH: B2 VH with N55Q
VL: B2 VL with D56S
notes: Igkappa light chain; also called AB6.12-hIgG4P
Kd [10]: 0.0357 nM
IC50 (read off the curve) [11]: ~0.4 nM

B13: AB12.05 (antibody, V domains shown)
VH: B2 VH with F27Y, N28T, I29F, K30T, D31Y
VL: B2 VL
EC50 (read off the curve) [3]: ~0.1 nM

B14: AB02.07 (antibody, V domains shown)
VH: B2 VH
VL: DIQMTQSPSSLSASVGDRVTITCRASQDIHRYLAWYQQKPGKVPKLLIYRANRLQSGVPSRFSGSGSGTDFTLTISSLQPEDVATYYCLQYDEFPYTFGQGTKVEIK
notes: humanized variant of 2A1; also called AB2.07
EC50 (read off the curve) [9]: ~0.5 nM

B15: humanized antibody AB6.12-IgG4PE (antibody, V domains shown)
VH: B2 VH with N55Q
VL: B2 VL with D56S
notes: Igkappa light chain; also called AB6.12-hIgG4PE
Kd [10]: 0.0346 nM
IC50 (read off the curve) [11]: ~0.3 nM

B16: AB2.13 (antibody, V domains shown)
VH: B2 VH
VL: B2 VL with K24R, S26R, D28G, H46I
EC50 (read off the curve) [1]: ~0.05 nM

B17: AB16.05 (antibody, V domains shown)
VH: B2 VH with F27Y, N28T, I29F, D31Y
VL: B2 VL
binding result [6]: binds

B18: AB22.05 (antibody, V domains shown)
VH: B2 VH with M81L, E82Q
VL: B2 VL
EC50 (read off the curve) [3]: ~0.1 nM

B19: AB17.05 (antibody, V domains shown)
VH: B2 VH with F27Y, N28T, I29F, K30T
VL: B2 VL
EC50 (read off the curve) [8]: ~0.2 nM

B20: humanized antibody AB6.12 (human IgG1) (antibody, V domains shown)
VH: B2 VH with N55Q
VL: B2 VL with D56S
notes: also called AB6.12-IgG1; AB6.12-hIgG1
Kd [10]: 0.0386 nM
IC50 (read off the curve) [11]: ~0.3 nM
Kd [4]: 0.0399 nM

B21: AB15.05 (antibody, V domains shown)
VH: B2 VH with F27Y, N28T, K30T, D31Y
VL: B2 VL
binding result [6]: binds

B22: AB25.05 (antibody, V domains shown)
VH: B2 VH with Q1E, M2V, T14P, S16A, S17T, V20I, A24V, R38Q, Q43K, A44G
VL: B2 VL
EC50 (read off the curve) [9]: ~0.3 nM

B23: AB24.05 (antibody, V domains shown)
VH: B2 VH with Q1E, M2V, T14P, S16A, S17T, V20I, A24V
VL: B2 VL
EC50 (read off the curve) [9]: ~0.2 nM

B24: AB03.09 (antibody, V domains shown)
VH: B2 VH with Q1E, M2V
VL: B2 VL with N1D
notes: humanized variant of 2A1; also called AB3.09
EC50 (read off the curve) [8]: ~0.1 nM

B25: AB6.17 (antibody, V domains shown)
VH: B2 VH with N55Q
VL: B2 VL with K24R, S26R, D28G, H46L, D56S
EC50 (read off the curve) [1]: ~0.2 nM

B26: AB10.14 (antibody, V domains shown)
VH: B2 VH with G56T
VL: B2 VL with K24R, S26R, D28G, D56S
EC50 (read off the curve) [7]: ~0.3 nM

B27: murine 9E4 antibody (antibody, mouse IgG1, V domains shown)
VH: EVQLRQSGPELVKPGASVKISCKASGYSFTDYYMYWVKQSRVRSLAWIGRINPYTGATGYDQNFKDKASLIVDKSSSTAYMELRSLTSEDSAVYYCARGRNRYDGWFAYWGQGTLVTV
VL: EIQMTQTTSSLSASLGDRVTISCRASQDISNYLNWYQQKPDGTVKLLIYYTSRLHSGVPSRFSGSGSGTDYSLTISNLDQEDIATYFCQQGNALPPTFGGGTNLEIK
EC50 (read off the curve) [12]: ~0.09 nM
